From US20260069728A1, “MULTI-TARGETING COMPOUND AND USE THEREOF” (Chengdu Shetai Medical Technology Co., Ltd., priority 2023, published 2026) come the findings set out here.

Data set [1] is described as follows: Stability of radioligands in PBS buffer (radio-HPLC). It is filed as physicochemical. As to the method: The purpose of this experiment was to test the stability of the radioligands under buffer conditions simulating the physiological environment. This stability is a prerequisite for further animal experiments.
1. ^68Ga-SDYD01: ^68Ga-SDYD01 was added to PBS buffer (pH=7.4) and incubated at 37° C. The mixture samples were taken for radio-HPLC analysis after 0.5 hours, 1 hour, and 2 hours of incubation. The stability of ^68Ga-SDYD01 in PBS buffer: the radiochemical purities of ^68Ga-SDYD01 after incubation in PBS for 0.5 hours, 1 hour, and 2 hours were 98%, 97%, and 97%, respectively (FIG. 4).
2. ^177Lu-SDYD01: ^177Lu-SDYD01 was added to PBS buffer (pH=7.4) and incubated at 37° C. The mixture samples were taken for radio-HPLC analysis after 24 hours, 48 hours, and 120 hours of incubation. The stability of ^177Lu-SDYD01 in PBS buffer: the radiochemical purities of ^177Lu-SDYD01 after incubation in PBS for 24 hours, 48 hours, and 120 hours were 97%, 96%, and 94%, respectively (FIG. 5).
1. ^68Ga-SDYD02: ^68Ga-SDYD02 was added to PBS buffer (pH=7.4) and incubated at 37° C. The mixture samples were taken for radio-HPLC analysis after 0.5 hours, 1 hour, and 2 hours of incubation. The stability of ^68Ga-SDYD02 in PBS buffer: the radiochemical purities of ^68Ga-SDYD02 after incubation in PBS for 0.5 hours, 1 hour, and 2 hours were 96%, 95% and 93%, respectively (FIG. 10).
2. ^177Lu-SDYD02: ^177Lu-SDYD02 was added to PBS buffer (pH=7.4) and incubated at 37° C. The mixture samples were taken for radio-HPLC analysis after 24 hours, 48 hours, and 120 hours of incubation. The stability of ^177Lu-SDYD02 in PBS buffer: the radiochemical purities of ^177Lu-SDYD02 after incubation in PBS for 24 hours, 48 hours, and 120 hours were 95%, 91% and 87%, respectively (FIG. 11).
1. ^68Ga-SDYD05: ^68Ga-SDYD05 was added to PBS buffer (pH=7.4) and incubated at 37° C. The mixture samples were taken for radio-HPLC analysis after 0.5 hours, 1 hour, and 2 hours of incubation. The stability of ^68Ga-SDYD05 in PBS buffer: the radiochemical purities of ^68Ga-SDYD05 after incubation in PBS for 0.5 hours, 1 hour, and 2 hours were 98%, 96% and 95%, respectively (FIG. 16).
2. ^177Lu-SDYD05: ^177Lu-SDYD05 was added to PBS buffer (pH=7.4) and incubated at 37° C. The mixture samples were taken for radio-HPLC analysis after 24 hours, 48 hours, and 120 hours of incubation. The stability of ^177Lu-SDYD05 in PBS buffer: the radiochemical purities of ^177Lu-SDYD05 after incubation in PBS for 24 hours, 48 hours, and 120 hours were 97%, 96% and 96%, respectively (FIG. 17).
1. ^68Ga-SDYD06: ^68Ga-SDYD06 was added to PBS buffer (pH=7.4) and incubated at 37° C. The mixture samples were taken for radio-HPLC analysis after 0.5, 1, and 2 hours of incubation. The stability of ^68Ga-SDYD06 in PBS buffer: the radiochemical purities of ^68Ga-SDYD06 after incubation in PBS for 0.5 hours, 1 hour, and 2 hours were 96%, 94% and 93%, respectively (FIG. 22).
2. ^177Lu-SDYD06: ^177Lu-SDYD06 was added to PBS buffer (pH=7.4) and incubated at 37° C. The mixture samples were taken for radio-HPLC analysis after 24 hours, 48 hours, and 120 hours of incubation.
1. ^68Ga-SDYD03: ^68Ga-SDYD03 was added to PBS buffer (pH=7.4) and incubated at 37° C. The mixture samples were taken for radio-HPLC analysis after 0.5 hours, 1 hour, and 2 hours of incubation. The stability of ^68Ga-SDYD03 PBS in PBS buffer: the radiochemical purities of ^68Ga-SDYD03 after incubation in PBS for 0.5 hours, 1 hour, and 2 hours were 96%, 96% and 95%, respectively (FIG. 27).
2. ^177Lu-SDYD03: ^177Lu-SDYD03 was added to PBS buffer (pH=7.4) and incubated at 37° C. The mixture samples were taken for radio-HPLC analysis after 24 hours, 48 hours, and 120 hours of incubation. The stability of ^177Lu-SDYD03 in PBS buffer: the radiochemical purities of ^177Lu-SDYD03 after incubation in PBS for 24 hours, 48 hours, and 120 hours are 99%, 96% and 94%, respectively (FIG. 28). […]

Data set [2] can be described thus: Small animal PET imaging and biodistribution study. It is filed as in vivo, NSG mice. To be noted: mouse, in vivo, iv, 7.4 MBq, absolute uptake value in the tumor. As to the method:
(§1) Eleven NSG mice bearing subcutaneous xenograft tumors (U87 MG cells), with tumor sizes approximately 150 mm^3, were used. The mice were intravenously injected via the tail vein with approximately 7.4 MBq of ^68Ga-labeled SDYD01, SDYD02, SDYD03. SDYD04, SDYD05, SDYD06, SDYD07, SDYD08 or SDYD07-1 compounds, or with ^[…]-labeled FAPI-04 or FAP2286 compounds as tracers. Micro PET/CT imaging was performed at 30 min, 60 min, and 120 min post-injection. Static images were acquired in 3D mode for 20 minutes. Reconstruction was performed using the OSEM3D/MAP method to obtain attenuation-corrected PET/CT fusion images.
(§2) NSG mice bearing subcutaneous xenograft tumors (U87 MG cells) were divided into 3 groups, with 11 mice in each group. They were intravenously injected via the tail vein with ^68Ga-labeled SDYD01, SDYD02, SDYD03. SDYD04, SDYD05, SDYD06. SDYD07, SDYD08, or SDYD07-1 compounds, or with ^68Ga-labeled FAPI-04 or FAP2286 compounds as tracers. Tumor-bearing mice injected with ^68Ga-labeled compounds SDYD01, SDYD02, SDYD03, SDYD04, SDYD05, SDYD06, FAPI-04, as well as 68Ga-labeled compounds FAPI-04 and FAP2286, were euthanized at 30 min. 60 min, and 120 min, respectively, for each group. Tumor-bearing mice injected with ^68Ga-labeled compounds SDYD07, SDYD08, and SDYD07-1 were euthanized at 30 min, 60 min, and 90 min, respectively, for each group. Blood, tumors, and other major organs and tissues were collected, weighed, and measured for radioactivity. After radioactive decay correction, the standardized uptake value (SUV) and percentage injected dose per gram of tissue (% ID/g) were calculated. In these figures, (a) represents the PET/CT imaging results, (b) represents the biodistribution results, and (c) represents the relative ratios of radioactive uptake in tumor versus normal tissues.

The test system of data set [3] is subcutaneous xenograft tumors (U87 MG cells). The data set can be described thus: Small animal PET imaging and biodistribution study. It is filed as in vivo, NSG mice. To be noted: mouse, in vivo. The protocol: as §1, §2

SMILES strings stand for the structures. Like-named read-outs stand apart in the source and are kept apart here.

Take `CCCCCC(=O)N[C@H]1CSCc2cc(CSCCNC(=O)[C@H](CCCCNC(=O)CCN3C(=O)CC(SCC(=O)NCCOCCOCCOCCOCCC(=O)NCCCC[C@@H]4NC(=O)[C@@H](Cc5ccc(O)cc5)NC(=O)[C@H](CC(=O)O)NC(=O)CNC(=O)[C@H](CCCNC(=N)N)NC4=O)C3=O)NC(=O)CCC(C(=O)O)N3CCN(CC(=O)O)CCN(CC(=O)O)CCN(CC(=O)O)CC3)cc(c2)CSC[C@@H](C(=O)O)NC(=O)[C@H](Cc2ccccc2)NC(=O)[C@H](CCC(N)=O)NC(=O)C([C@@H](C)O)NC(=O)[C@@H]2CCCN2C(=O)[C@@H]2CCCN2C1=O` (single isomer, unassigned) [^177Lu-SDYD08, metal not drawn]: the “stability in PBS buffer (in words)” value in data set [1] was “quite stable in PBS buffer”. For `CN1C(=O)[C@@H](Cc2ccc(O)cc2)NC(=O)CNC(=O)[C@H](Cc2ccc3ccccc3c2)NC(=O)[C@H](CCCNC(=N)N)NC(=O)[C@H]1CCCNC(=O)c1ccc(CNC(=O)[C@H](CCCCNC(=O)CN2CCN(CC(=O)O)CCN(CC(=O)O)CCN(CC(=O)O)CC2)NC(=O)CCC(=O)NCCOCCOCC(=O)NCCOCCOCC(=O)N2CCN(CCCOc3ccc4nccc(C(=O)NCC(=O)N5CC(F)(F)C[C@H]5C#N)c4c3)CC2)cc1` [^177Lu-SDYD05, metal not drawn], the “stability in PBS buffer (in words)” value in data set [1] is reported as “quite stable in PBS buffer”. On to `N#C[C@@H]1CC(F)(F)CN1C(=O)CNC(=O)c1ccnc2ccc(OCCCN3CCN(C(=O)CCOCCOCCNC(=O)CCN4C(=O)CC(SC[C@H](NC(=O)CN5CCN(CC(=O)O)CCN(CC(=O)O)CCN(CC(=O)O)CC5)C(=O)NCCCC[C@@H]5NC(=O)[C@@H](Cc6ccc(O)cc6)NC(=O)[C@H](CC(=O)O)NC(=O)CNC(=O)[C@H](CCCNC(=N)N)NC5=O)C4=O)CC3)cc12` (stereo partly drawn) [^68Ga-SDYD07-1, metal not drawn], for which, in data set [2], the tissue uptake (usually the percentage of the injected dose found per gram of tissue) at 0.5 h is about 3 %ID/g and the tissue uptake at 1 h is about 3 %ID/g. Further, in data set [3], the “radioactive uptake in non-target organs (in words)” value is “relatively high non-specific uptake in both the kidneys and liver”; the “tumor uptake after 60 minutes (in words)” value is “decreased significantly after 60 minutes”. With `CCCCCC(=O)N[C@@H]1CSCc2cc(CSCCNC(=O)COCCOCCNC(=O)COCCOCCNC(=O)CSC3CC(=O)N(CCC(=O)N[C@H](CCCCNC(=O)CN4CCN(CC(=O)O)CCN(CC(=O)O)CCN(CC(=O)O)CC4)C(=O)NCc4ccc(C(=O)NCCC[C@@H]5C(=O)N[C@@H](CCCNC(=N)N)C(=O)N[C@@H](Cc6ccc7ccccc7c6)C(=O)NCC(=O)N[C@H](Cc6ccc(O)cc6)C(=O)N5C)cc4)C3=O)cc(c2)CSC[C@@H](C(=O)O)NC(=O)[C@H](Cc2ccccc2)NC(=O)[C@H](CCC(N)=O)NC(=O)C([C@@H](C)O)NC(=O)[C@@H]2CCCN2C(=O)[C@@H]2CCCN2C1=O` (single isomer, unassigned) [^177Lu-SDYD06, metal not drawn], in data set [1], the “stability in PBS buffer (in words)” value was “quite stable in PBS buffer”. On the same count and under the same terms, to `CCCCCC(=O)N[C@@H]1CSCc2cc(CSCCNC(=O)[C@@H](CCCCNC(=O)CN3CCN(CC(=O)O)CCN(CC(=O)O)CCN(CC(=O)O)CC3)NC(=O)COCCOCCNC(=O)COCCOCCNC(=O)CCN3C(=O)CC(SCCNC(=O)CCC(=O)N[C@@H](CCCNC(=N)N)C(=O)N[C@@H](CCCNC(=N)N)C(=O)N[C@@H](Cc4ccc5ccccc5c4)C(=O)N[C@@H]4CSSC[C@@H](C(=O)N[C@@H](CCCNC(=N)N)C(N)=O)NC(=O)[C@H](CCCNC(N)=O)NC(=O)[C@H](CCCNC(=N)N)NC(=O)[C@H](Cc5ccc(O)cc5)NC(=O)[C@@H]5CCCN5C(=O)[C@H](CCCCN)NC(=O)[C@H](CCCCN)NC(=O)[C@H](CCCNC(N)=O)NC(=O)[C@H](Cc5ccc(O)cc5)NC4=O)C3=O)cc(c2)CSC[C@@H](C(=O)O)NC(=O)[C@H](Cc2ccccc2)NC(=O)[C@H](CCC(N)=O)NC(=O)C([C@@H](C)O)NC(=O)[C@@H]2CCCN2C(=O)[C@@H]2CCCN2C1=O` (single isomer, unassigned) [^177Lu-SDYD02, metal not drawn] belongs “quite stable in PBS buffer”.

For the compound `CC(C)CC(CC(C)C)NC(=O)[C@H](Cc1cnc[nH]1)NC(=O)CNC(=O)C(NC(=O)[C@H](C)NC(=O)[C@H](Cc1c[nH]c2ccccc12)NC(=O)[C@H](CCC(N)=O)NC(=O)[C@@H](Cc1ccccc1)NC(=O)COCC(=O)Nc1ccc(CNC(=O)COCCOCCNC(=O)COCCOCCNC(=O)[C@H](CCCCNC(=O)CN2CCN(CC(=O)O)CCN(CC(=O)O)CCN(CC(=O)O)CC2)NC(=O)CCC(=O)N2CCN(CCCOc3ccc4nccc(C(=O)NCC(=O)N5CC(F)(F)C[C@H]5C#N)c4c3)CC2)cc1)C(C)C` (single isomer, unassigned) [^177Lu-SDYD03, metal not drawn], in data set [1] (PBS buffer pH=7.4, 37° C.), the “stability in PBS buffer (in words)” value is reported as “quite stable in PBS buffer”.
